Results taken from patent US6924101B2, “Methods for identifying anti-microbial agents” (priority 1997, dated 2005).

B1: pJB59: pLEX5BA with a 451 bp EcoRI/BamHI fragment of orf1/ampG in antisense orientation; expresses antisense RNA (SEQ ID NO: 7) (nucleic acid)
antisense: GAAUUCGUGGAUGCUGGUGUCCUGAGACAUAUCAGCGAUGGUAUCGGUCAGCACACUGUUAACCGCAUCGGCGAUAUUUUUGUUGGAGGCCUGGAACGCACCUUCAACGUUGUAGCUGGCACGAUAGUUUUUGGUCAUUUUGUUGCCAUUCUGCGCGGUAGCGAUGAUGGCGAUAUCCGCUUUGGUCGCGAUGUUGUAGCGCACGUUGCCCUGGGACACGUCAGCAUACAGUUGGCUAACGAUGAUUUGCAGAUUAACCGGGCCAUUCGGACCAACCAUGUAACCACGCGCGGUCAUCUGUUUUUCCAGCACUUCUUGCAGCAGGAAACGCAGAUCGCGGGAGGCGGUCAGGGUAACGAUUUGAUUAUCGCGGGUGACUUUUGCCAGCGCCUGAUCGGUACGCUGAUCGGCACCAUUAAUGCUUACGGUGACGCCCAUCAGGCUUGGAUCC
modifications: expressed from plasmid pLEX5BA; Escherichia coli ampG
B2: pJB53: pLEX5BA with a 714 bp PstI/HindIII fragment of viaA in antisense orientation; expresses antisense RNA (SEQ ID NO: 4) (nucleic acid)
antisense: CUGCAGGCUGAGGUGUUGCCCUUACAAAUGCAACAACGACAUGGAUUACAACACCCUCAUAAACAAAGGGCAAUCACCUGAUCUAAGCUCUUACCUAUGACAGUGAUAGGUUAUGCCUUUUACUCGACUUUUGCACUGACUGAAAAGGACAAAUUAAUGUUAAAAAAGAUACUUUUACUGGCUCUGCUUCCUGCAAUCGCCUUCGCAGAGGAACUUCCUGCUCCAGUAAAAGCGAUUGAAAAACAGGGCAUUACAAUCAUCAAAACAUUCGAUGCCCCCGGAGGAAUGAAAGGUUAUCUCGGAAAGUAUCAGGAUAUGGGCGUCACCAUCUACCUGACUCCAGAUGGUAAGCACGCUAUCUCUGGUUACAUGUACAACGAGAAAGGUGAAAACCUGAGUAACACACUUAUCGAAAAAGAAAUUUACGCACCAGCCGGACGCGAAAUGUGGCAACGGAUGGAACAAUCCCACUGGCUCCUCGACGGUAAAAAAGAUGCGCCGGUCAUUGUCUACGUCUUCGCCGAUCCGUUCUGCCCAUAUUGUAAACAGUUCUGGCAGCAGGCGCGCCCGUGGGUAGAUUCUGGCAAAGUGCAAUUAAGAACAUUGUUGGUUGGGGUUAUCAAGCCAGAAAGCCCGGCGACAGCAGCGGCAAUUCUUGCCUCCAAAGAUCCCGCAAAAACCUGGCAACAAUAUGAAGCCUCUGGUGGCAAGCUU
modifications: expressed from plasmid pLEX5BA; Escherichia coli viaA

Assays:
E. coli DH5α [1] = test: Colony formation on M9 agar with or without 1 mM IPTG (FIG. 6); type: cell-based; conditions: M9 agar containing 1 mM IPTG vs without IPTG
Experimental: FIG. 6 is a bar graph showing the effect of inducing lepB, ddlB, viaA or orf1 antisense RNA expression on colony formation in E. coli DH5α. Striped bars indicate colony forming units (CFUs) per ml of culture for strains grown on semi-solid media in the absence of the inducer IPTG. Solid bars indicate CFUs/ml for strains grown in the presence of IPTG.
Cell proliferation for each strain was measured by diluting overnight cultures 1:10^6 into M9 medium. After growth to an OD450 of 0.2, aliquots of each culture were plated on M9 agar without IPTG or M9 agar containing 1 mM IPTG. […] Colony formation by cells carrying pJB57 was inhibited more than 100 fold. The colony formation of strains carrying pJB59 was inhibited more than 1000 fold.

E. coli DH5α [2] = test: Growth curves (OD450) in liquid LB media with or without 1 mM IPTG (FIG. 7); type: cell-based
Experimental: FIG. 7 is a graph showing growth curves of E. coli DH5α containing pJB37, pJB57 and pJB59 in liquid media in the presence and absence of IPTG.
Inhibition of bacterial growth after IPTG induction. Growth curves were carried out by back diluting cultures 1:20 into fresh media with or without 1 mM IPTG and measuring the OD450 every 30 minutes (min). To study transcriptional induction in exponential phase, cultures were diluted 1:10^6 or as indicated. The viability (CFU/ml) was determined over time by plating aliquots of the culture on agar with or without IPTG.
Kinetics of inhibition during exponential growth by antisense RNA. The kinetics of antisense inhibition was examined for strains carrying pJB37, pJB53, pJB57 or pJB59. Overnight cultures of each strain were diluted 1:20 into LB media containing 1 mM IPTG or LB media without IPTG. The OD450 was then measured on the liquid cultures. […] After induction of antisense RNA expression, a few generations of cell division presumably are required in order to dilute endogenous gene product present at the initiation of induction.

E. coli DH5α [3] = test: Viability (CFUs/ml) over time after induction of antisense RNA expression (FIG. 8); type: cell-based
Experimental: FIG. 8 is a graph showing the viability of DH5α strains at various times after induction of antisense RNA expression. Strains contained the following plasmids: squares: pJB37; diamonds: pJB53; circles: pJB57; and triangles; pJB59.
Inhibition of viability by antisense RNA. The viability over time of the four strains expressing the antisense RNAs described above was also examined. Overnight cultures of each strain were diluted 1:100 into LB medium containing 1 mM IPTG. Aliquots of each culture were plated on LB agar containing ampicillin at intervals thereafter to determine CFUs/ml.

JRG58201 = test: Growth and viability of ampG null strain after IPTG induction; type: cell-based, E. coli
From the text: Lethality of pJB59 antisense RNA requires inhibition of orf1. The polycistronic mRNA that encodes ampG in E. coli has an upstream ORF, termed orf1 herein: The antisense RNA made by pJB59 is complementary to orf1. In order to determine whether translational inhibition of orf1 or of ampG was the cause of the lethality of pJB59 antisense RNA, pJB59 was transformed into the ampG null strain, JRG58201. Jacobs, C., et al, EMBO J. 13:4684-4694 (1993). JRG58201 has a defect in the ampG gene but has no known defect in the orf1 gene.

E. coli DH5α [4] = test: Effect of different concentrations of inducer IPTG on viability (FIG. 9); type: cell-based
Experimental: FIG. 9 is a graph showing the effect of varying concentrations of inducer on the viability of DH5α containing pJB37 (panel A) or pJB53 (panel B).
Effect of different concentrations of transcriptional inducer. Experiments were carried out to determine the effect of different concentrations of the inducer IPTG on bacterial growth and viability with the two clones where antisense RNA is bacteriocidal. Overnight cultures were diluted 1:100 into LB media containing 0, 10, 100 500 or 1000 micro molar (μM) IPTG. At the time of induction and every 2 hours thereafter, aliquots were plated on LB/ampicillin agar to determine CFUs/ml.

Salmonella typhimurium = test: Growth of transformants plated on LB with or without 1 mM IPTG; type: cell-based
Experimental: In order to examine the effectiveness of the antisense RNAs in a related species, Salmonella typhimurium was transformed with pJB37 or pJB53. The ampicillin-resistant transformants were plated on LB with or without 1 mM IPTG.

Row | Molecule | inhibition of colony formation (E. coli DH5α [1]) | time after induction until significant effect on the increase in cell mass (OD450) (E. coli DH5α [2]; LB, 1 mM IPTG) | time after which cell mass stopped increasing (did not decrease) (E. coli DH5α [2]; LB, 1 mM IPTG) | bacteriocidal or bacteriostatic (E. coli DH5α [3]) | growth and viability when antisense RNA is expressed (E. coli DH5α [3]; 1 mM IPTG, LB) | growth and viability after IPTG induction (JRG58201) | effect on cell growth or colony formation when induced with IPTG (E. coli DH5α [1]) | time at which cell mass began to decrease (E. coli DH5α [2]; LB, 1 mM IPTG) | cell lysis, microscopic examination (E. coli DH5α [2]; after induction of antisense RNA) | reduction of viability (E. coli DH5α [3]; 6 hours after induction, 1 mM IPTG, LB) | effect on colony forming ability (E. coli DH5α [4]; 10 μm IPTG) | anti-proliferative effect (E. coli DH5α [4]; 500 μm IPTG) | effect on the time of cell death of a 2 fold increase of IPTG (E. coli DH5α [4]; 1000 μm IPTG) | growth after induction of the antisense RNA (Salmonella typhimurium)
1 | B1 | more than 1000 fold | about 3 hours | about 3 hours | bacteriostatic | growth is inhibited but viability is not reduced | inhibited | – | – | – | – | – | – | – | –
2 | B2 | – | – | – | bacteriocidal | – | – | unable to form colonies | about 4 hours | did not | about 3 logs | minimal effect | near maximal | little effect | greatly inhibited
